Fewer inactive variants are shown than the library holds.
B1: TPR 5TU (parent)
chain: GGAUCUUCUCGAUCUAACAAAAAAGACAAAUCUGCCACAAAGCUUGAGAGCAUCUUCGGAUGCAGAGGCGGCAGCCUUCGGUGGCGCGAUAGCGCCAACGUUCUCAACUAUGACACGCAAAACGCGUGCUCCGUUGAAUGGAGUUUAUCAUG

Variants of: B1
Assay: polymerase ribozyme fitness, log enrichment relative to wild type (log ratio); higher = more active; in vitro selection for triplet polymerase activity
Method in brief: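 Only genotypes with ≥10 input reads and ≥1 read per output were kept after Illumina sequencing of input and output libraries. These libraries were PCR-built, transcribed mutants of each subunit of a heterodimeric triplet polymerase ribozyme, each put through one triplicate in vitro selection round with frozen incubation at −7 °C, gel excision of extended constructs, streptavidin-bead capture and RT-PCR. Fitness is a logarithmic ratio of genotype enrichment to wild-type enrichment, from inverse-variance-weighted replicate averages, with the logarithm in base 2.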

First: C51U C118U
Second: G50U U78C
The “polymerase ribozyme fitness (log ratio)” value of the first is higher: -0.957 for the first, -2.27 for the second.

G50C G83C G94A C132U U135C A142U and G50U C57U A110G G140A cannot be ordered by “polymerase ribozyme fitness (log ratio)” value: ≤ -4.2 for the first, ≤ -4.2 for the second.

Going from A49U G50C C57U A89C C96A to A52G G58U G84U C96A C99U, the “polymerase ribozyme fitness (log ratio)” value falls from -3.23 to -4.02.

Compared with G50C G74A U77G C93G U135A U139A, C51U U53A C93A is higher in “polymerase ribozyme fitness (log ratio)” value: ≤ -4.2 for the first, -4.05 for the second.

First: C51U A60G C79G C85G C129A
Second: C51U U104G
The “polymerase ribozyme fitness (log ratio)” value of the first is lower: ≤ -4.2 for the first, -1.04 for the second.

First: C51A A60G G124U
Second: A52C C87A C93U A98U G128U U148G
The “polymerase ribozyme fitness (log ratio)” value of the first is higher: -1.75 for the first, ≤ -4.2 for the second.

A49U G58U U78A C96G C103U U135A and G50A G88A cannot be ordered by “polymerase ribozyme fitness (log ratio)” value: ≤ -4.2 for the first, ≤ -4.2 for the second.

Compared with G50C G59C, A52G G59C C99U is higher in “polymerase ribozyme fitness (log ratio)” value: -3.38 for the first, -1.42 for the second.

Going from A52C A119U G141C to A52C G83U U145A, the “polymerase ribozyme fitness (log ratio)” value rises from -2.95 to -1.8.

First: C51U U56A G65U G81C G136C A138G G141C A142G
Second: C51U A52C
The “polymerase ribozyme fitness (log ratio)” value of the first is lower: ≤ -4.2 for the first, -1.33 for the second.

G50U A91G C103G and C51A A64G C87A G128U G140C cannot be ordered by “polymerase ribozyme fitness (log ratio)” value: ≤ -4.2 for the first, ≤ -4.2 for the second.

Compared with G50U C87U A115U U144A, G50C G126A is higher in “polymerase ribozyme fitness (log ratio)” value: -3.8 for the first, -2.28 for the second.

First: A52C C69A C105U
Second: G50A U55G G67C G80U C85G C105U A138U
The “polymerase ribozyme fitness (log ratio)” value of the first is higher: -3.13 for the first, ≤ -4.2 for the second.

First: C51U G94U C114A G140A
Second: C51G
The “polymerase ribozyme fitness (log ratio)” value of the first is lower: ≤ -4.2 for the first, -1.58 for the second.

Going from C51U to C51A, the “polymerase ribozyme fitness (log ratio)” value falls from -0.394 to -0.687.

A49U A52G U61G C93U and G50C C57G C118G are within 0.2 log units of each other in “polymerase ribozyme fitness (log ratio)” value: -3.49 for the first, -3.68 for the second.

Going from C51U G92U C93U C95U to A52C U53A C85U A107U A119C C125U, the “polymerase ribozyme fitness (log ratio)” value falls from -2.56 to ≤ -4.2.

Compared with G50C U53A C57G G70A G100C A120G, C51U A52U G94U is higher in “polymerase ribozyme fitness (log ratio)” value: ≤ -4.2 for the first, -2.8 for the second.

A49U A138U and A52C C63U C93A A107U C125U U146A cannot be ordered by “polymerase ribozyme fitness (log ratio)” value: ≤ -4.2 for the first, ≤ -4.2 for the second.

First: C51A C57G
Second: A49U C75U U102G
The “polymerase ribozyme fitness (log ratio)” value of the first is higher: -2.19 for the first, -2.65 for the second.

Compared with G50C A52C G128A, A52G C54U G58C G86A A89U is higher in “polymerase ribozyme fitness (log ratio)” value: ≤ -4.2 for the first, -3.29 for the second.

Compared with G50U A64G, C51A U82G A115U is higher in “polymerase ribozyme fitness (log ratio)” value: ≤ -4.2 for the first, -3.17 for the second.

Compared with G50U G81A C93G, A52G C63G is higher in “polymerase ribozyme fitness (log ratio)” value: -3.96 for the first, -0.179 for the second.

Compared with G50A G83C U144A, G50C G65C G68A G86U A147G is lower in “polymerase ribozyme fitness (log ratio)” value: -2.07 for the first, ≤ -4.2 for the second.

First: C51U C69A C96U G141C
Second: C51A G65A G81U C96G A106U G136U
The “polymerase ribozyme fitness (log ratio)” value of the first is higher: -3.18 for the first, ≤ -4.2 for the second.

Compared with A52C U56A G86A U90A A107C, G50C A98U is higher in “polymerase ribozyme fitness (log ratio)” value: ≤ -4.2 for the first, -2.38 for the second.

Going from G50A C118G to A52C A107C A122C A138G, the “polymerase ribozyme fitness (log ratio)” value falls from -2.21 to ≤ -4.2.

First: A52C C75U G88C C96U C105G G136U
Second: C51U U56A A91G
The “polymerase ribozyme fitness (log ratio)” value of the first is lower: ≤ -4.2 for the first, -3.44 for the second.

A49U C51U C79A A120G C123A and G50A A73G A150G cannot be ordered by “polymerase ribozyme fitness (log ratio)” value: ≤ -4.2 for the first, ≤ -4.2 for the second.

Going from G50A A150G to G50A U144A, the “polymerase ribozyme fitness (log ratio)” value rises from -3.11 to -1.6.

Compared with G50A C93A, C51U C57A C63U G65C is lower in “polymerase ribozyme fitness (log ratio)” value: -3.33 for the first, ≤ -4.2 for the second.

Compared with C51U G94A C96U G126C, G50C U56A G62C C72U C95U is lower in “polymerase ribozyme fitness (log ratio)” value: -1.72 for the first, ≤ -4.2 for the second.

Going from C51G A66U G67A C118U to A52G C87U C116U C149G, the “polymerase ribozyme fitness (log ratio)” value rises from ≤ -4.2 to -3.76.

Compared with G50U G58U, G50C A60C A98U is lower in “polymerase ribozyme fitness (log ratio)” value: 0.771 for the first, -3.01 for the second.

C51A C57A C95A G126A A147G and G50C C103A U139C cannot be ordered by “polymerase ribozyme fitness (log ratio)” value: ≤ -4.2 for the first, ≤ -4.2 for the second.

First: A52G G58C
Second: G50A C103G U111G A122U U151A
The “polymerase ribozyme fitness (log ratio)” value of the first is higher: 0.885 for the first, ≤ -4.2 for the second.

Going from C51U A150G to C51U G58C A73G G81A C116U, the “polymerase ribozyme fitness (log ratio)” value rises from -1.14 to -0.931.

Going from C51U C93G to C51U U55C A106G U151G, the “polymerase ribozyme fitness (log ratio)” value falls from -3.69 to ≤ -4.2.

G50C A66C C79G C93U C95U U139C A147U and C51A G59U A64G C85U C99G A113G A120G U127G G140U U148A cannot be ordered by “polymerase ribozyme fitness (log ratio)” value: ≤ -4.2 for the first, ≤ -4.2 for the second.

Compared with A52G C69G G71C, C51U G80A G81A A150U is higher in “polymerase ribozyme fitness (log ratio)” value: -2.11 for the first, -1.5 for the second.

Compared with A52G C95A C99A, G50U G84C C85G A106G C116U G152A is lower in “polymerase ribozyme fitness (log ratio)” value: -1.54 for the first, ≤ -4.2 for the second.

With A52G A60G U77G A91U G133U the “polymerase ribozyme fitness (log ratio)” value was ≤ -4.2.

— the RNAGym collection of RNA variant scans (doi:10.1073/pnas.2313332121)
